The target of assay [1] is SARS-CoV-1 spike on pseudovirus (SARS-CoV-1, UniProt P59594 14-1255). The assay is described as follows: cell-based or functional assay.
In assay [2] the target is T1, SARS-CoV-1 spike trimer (SARS-CoV-1, UniProt P59594 14-1195). The assay is described as follows: ELISA, plate-coated SARS-CoV-1 spike, purified mouse antibody. (In general: In an ELISA, binding on a coated surface is turned into a signal by an enzyme label.)
The target of assay [3] is T1, SARS-CoV-1 spike trimer. Kind of assay: ELISA, plate-coated SARS-CoV-1 spike.

Several values for one entry are separate records, joined by “and”; a condition that tells them apart may be missing. Equal entries are not always repeated.

We go through 2 molecules from patent publication US20220372114A1 (CURIA IP, published 2022).

A word on the EC50: it is the concentration that produces a half-maximal response. A high value points to lower potency in that assay.

B1: 10-B13-A (human Fc IgG2 chimera) (antibody, V domains shown)
VH: QVQLQQSGAELVKPGASVKISCKASGYAFSNYWMNWVKQRPGKGLEWIGQIYPGDGDTNYNGNFKGKATLTADKSSSTAYIQLSSLTSEDSAVYFCGRGFIATVVEVFDHWGLGTTLTVSS
VL: DIQMTQTTSSLSASLGDRVTISCRASQDISNYLNWYQQKPDGTVKLLIYYTSRLQSGVPSRFSGSGTGTDYSLTISNLEQEDIATYFCQQGNTLPWTFGGGTKLEIK
Turning to B1, the “IC50, SARS-CoV-1 pseudovirus ACE2+TMPRSS2+ target cell infection assay” value in assay [1] is ~33 ug/ml and ~220 nM.

B2: 10-B13-A (antibody, V domains shown)
VH: B1 VH
VL: B1 VL
As to B2, the EC50 with SARS-CoV-1 spike trimer [2] is 0.96 nM; in the assay with SARS-CoV-1 spike trimer [3], around 1 nM.
